Consider 1 molecule from PMC5609902 (Oncotarget, 2017).

One assay concerns the target T1, rgp120 (R2) (HIV-1 R2).
T1 construct: gp120, the surface subunit of the Env glycoprotein, HIV-1 isolate R2; recombinant; also called native rgp120; coated rgp120; source: bought: Immune Technology Corp or Enzyme LLC
The assay can be described thus: ELISA; direct ELISA; 1 μg/ml rgp120 or rgp140 coated in 0.1 M carbonate buffer pH 9.6, 4°C overnight; antibody 1 h at 37°C; detected with HRP goat anti-human IgG. Conditions: both partners purified. On the technique in general: ELISA stands for enzyme-linked immunosorbent assay.

Assay [1] has as its target T2, JRFL rgp120 (HIV-1 JRFL (clade B), UniProt Q75760, strain). The assay can be described thus: cell-based or functional assay.
The target of assay [2] is Env glycoprotein (gp160) of HIV-1 NL4-3, wild type (HIV-1 NL4-3 (clade B), UniProt Q6BC06, strain). The assay can be described thus: cell-based or functional assay.
Assay [3] has as its target T2, JRFL rgp120. The assay can be described thus: SPR; BIACORE T200; rgp120 immobilised on CM5 chip by amine coupling (20 μg/ml); antibody in two-fold dilutions injected at 30 μl/min for 3 min; 1:1 Langmuir model, global fit. Conditions: both partners purified. On the technique in general: SPR reads the build-up and loss of mass on a sensor chip optically.
A further assay has as its target T3, CN54 rgp120 (HIV-1 isolate CN54 (97CN54), CRF07_BC, UniProt Q994N8, strain).
T3 construct: gp120, the surface subunit of the Env glycoprotein, HIV-1 isolate CN54 (CRF07_BC); recombinant; also called CRF07_BC (CN54)-derived rgp120; CN54 gp120; source: bought: Immune Technology Corp or Enzyme LLC
Described as above. Conditions: both partners purified.

B1: Y498 IgG1 (antibody, V domains shown)
VH: KVQLVQSGTELKKPGASGKVSCKASGYTFNSNGLNWVRQAPGQGLEWVGWISGHSDETKHAQNFQGRLTLTTDTSTNTAYMELRSLRSDDTAVYYCARSLLRSLERLMGGTDAFDIWGQGTLVTVSS
VL: not shown
notes: as the VH of m1; as the VL of m1; Full-length IgG1, kappa light chain, made by recloning the Fab chains in the pDR12 vector; also called whole Y498 IgG1; source: 293T, transient transfection, purified from the culture medium (protein A/G sepharose)
For B1, the binding result with rgp120 (R2) was “binds”. Besides, the “neutralisation of the pseudovirus with JRFL Env (Env on the virus, not the rgp120), single cycle infection of TZM-bl cells, IC50” value with JRFL rgp120 [1] is over 50 µg/mL. Moreover, in assay [2], the “neutralisation of the pseudovirus with NL4-3 Env, single cycle infection of TZM-bl cells, IC50” value was 0.61 µg/mL. Also, the results for the Kd in the assay with JRFL rgp120 [3] and with CN54 rgp120 were 0.86 nM and 0.46 nM, respectively.

In general, Kd refers to the equilibrium constant for the complex coming apart. A high value points to weaker binding.
